We go through 94 variants from the supplement of paper PMC10567573.

The chains are these.
B1: EPB41L3 (parent)
chain: SMQCKVILLDGSEYTCDVEKRSRG
B2: KCNK9 (parent)
chain: CFITLTTIGFGDYVALQTKGALQK
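Further: lentivirally expressed fusions sorted by FACS into six bins by GFP to DsRed ratio, PSI derived from sequencing read proportions per bin multiplied by bin number.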

Variants of B1 are the subject of the first data set. The data set is described as follows: protein stability index of a GFP-peptide fusion (GPS, HEK-293T) (PSI 1-6); higher = more stable. To be noted: c terminus: a fixed tail appended.
Turning to SMQCKVILLEGSEYTCDVEKRSRG [D10E], the protein stability index came to 2.24.
In the case of SMQCKVILLNGSEYTCDVEKRSRG [D10N], the protein stability index came to 1.89.
Same read-out and setting: with SMQCKVILLHGSEYTCDVEKRSRG [D10H] the figure was 1.5; with SMQCKVILLPGSEYTCDVEKRSRG [D10P], 2.66.
Same read-out and setting: the same measure for SMQCKVILLAGSEYTCDVEKRSRG [D10A]: 2.07.
On the same count and under the same terms, the same measure for SMQCKVILLLGSEYTCDVEKRSRG [D10L]: 1.67; for SMQCKVILLQGSEYTCDVEKRSRG [D10Q]: 2.41.
Regarding SMQCKVRLLDGSEYTCDVEKRSRG [I7R], the protein stability index turned out to be 3.45.
With SMQCKVSLLDGSEYTCDVEKRSRG [I7S], the protein stability index was 3.91.
The same measure, in the same setting: the same measure for SMQCKVLLLDGSEYTCDVEKRSRG [I7L]: 2.63.
Take SMQCKVQLLDGSEYTCDVEKRSRG [I7Q]: the protein stability index was 3.13.
With SMQCKVHLLDGSEYTCDVEKRSRG [I7H], the protein stability index worked out at 3.03.
As for SMQCKVFLLDGSEYTCDVEKRSRG [I7F], the protein stability index was 2.39.
The same measure, in the same setting: with SMQCKVDLLDGSEYTCDVEKRSRG [I7D] the figure was 4.08.
The same measure, in the same setting: with SMQCKVYLLDGSEYTCDVEKRSRG [I7Y] the figure was 2.15; with SMQCKVWLLDGSEYTCDVEKRSRG [I7W], 3.62.
On the same count and under the same terms, with SMQCKVTLLDGSEYTCDVEKRSRG [I7T] the figure was 3.64.
In the case of SMQCKVNLLDGSEYTCDVEKRSRG [I7N], the protein stability index was 3.43.
Same read-out and setting: the same measure for SMQCKVALLDGSEYTCDVEKRSRG [I7A]: 3.03; for SMQCKVICLDGSEYTCDVEKRSRG [L8C]: 3.13.
For SMQCKVINLDGSEYTCDVEKRSRG [L8N], the protein stability index was determined as 4.24.
As for SMQCKVITLDGSEYTCDVEKRSRG [L8T], the protein stability index came to 2.67.
Take SMQCKVIMLDGSEYTCDVEKRSRG [L8M]: the protein stability index was found to be 3.13.
Same read-out and setting: the same measure for SMQCKVIPLDGSEYTCDVEKRSRG [L8P]: 4.33; for SMQCKVIALDGSEYTCDVEKRSRG [L8A]: 3.31; for SMQCKVIYLDGSEYTCDVEKRSRG [L8Y]: 3.13.
On the same count and under the same terms, with SMQCKVIQLDGSEYTCDVEKRSRG [L8Q] the figure was 4.25.
With SMQCKVIKLDGSEYTCDVEKRSRG [L8K], the protein stability index was 3.43.
For SMQCKVISLDGSEYTCDVEKRSRG [L8S], the protein stability index is 3.79.
The same measure, in the same setting: the same measure for SMQCKVIDLDGSEYTCDVEKRSRG [L8D]: 4.41; for SMQCKVIRLDGSEYTCDVEKRSRG [L8R]: 2.83.
The same measure, in the same setting: with SMQCKVIILDGSEYTCDVEKRSRG [L8I] the figure was 2.17.
With SMQCKVIELDGSEYTCDVEKRSRG [L8E], the protein stability index came to 4.05.
Still for that read-out and setting: the same measure for SMQCKVIFLDGSEYTCDVEKRSRG [L8F]: 4.39; for SMQCKVIHLDGSEYTCDVEKRSRG [L8H]: 3.66.
With AMQCKVILLDGSEYTCDVEKRSRG [S1A], the protein stability index came to 2.86.
On the same count and under the same terms, the same measure for DMQCKVILLDGSEYTCDVEKRSRG [S1D]: 3.27; for WMQCKVILLDGSEYTCDVEKRSRG [S1W]: 2; for GMQCKVILLDGSEYTCDVEKRSRG [S1G]: 2.37.
On the same count and under the same terms, with QMQCKVILLDGSEYTCDVEKRSRG [S1Q] the figure was 2.64.
Still for that read-out and setting: with RMQCKVILLDGSEYTCDVEKRSRG [S1R] the figure was 1.95; with HMQCKVILLDGSEYTCDVEKRSRG [S1H], 2.19; with TMQCKVILLDGSEYTCDVEKRSRG [S1T], 1.92.
In the case of YMQCKVILLDGSEYTCDVEKRSRG [S1Y], the protein stability index amounted to 1.37.
For the variant IMQCKVILLDGSEYTCDVEKRSRG [S1I], the protein stability index stood at 1.93.
On the same count and under the same terms, with FMQCKVILLDGSEYTCDVEKRSRG [S1F] the figure was 2.
The same measure, in the same setting: the same measure for CMQCKVILLDGSEYTCDVEKRSRG [S1C]: 1.74; for MMQCKVILLDGSEYTCDVEKRSRG [S1M]: 3.46.
As to KMQCKVILLDGSEYTCDVEKRSRG [S1K], the protein stability index stood at 1.93.
Consider PMQCKVILLDGSEYTCDVEKRSRG [S1P], for which the protein stability index turned out to be 3.04.
Still for that read-out and setting: with VMQCKVILLDGSEYTCDVEKRSRG [S1V] the figure was 1.78.
For NMQCKVILLDGSEYTCDVEKRSRG [S1N], the protein stability index came to 2.34.
For the variant LMQCKVILLDGSEYTCDVEKRSRG [S1L], the protein stability index turned out to be 2.2.
Take EMQCKVILLDGSEYTCDVEKRSRG [S1E]: the protein stability index came to 3.32.
The same measure, in the same setting: the same measure for SMFCKVILLDGSEYTCDVEKRSRG [Q3F]: 3.2; for SMWCKVILLDGSEYTCDVEKRSRG [Q3W]: 1.19; for SMCCKVILLDGSEYTCDVEKRSRG [Q3C]: 2.16.
Take SMNCKVILLDGSEYTCDVEKRSRG [Q3N]: the protein stability index is 2.76.
Consider SMPCKVILLDGSEYTCDVEKRSRG [Q3P], for which the protein stability index was found to be 3.63.
The same measure, in the same setting: with SMYCKVILLDGSEYTCDVEKRSRG [Q3Y] the figure was 2.07; with SMVCKVILLDGSEYTCDVEKRSRG [Q3V], 2.63.
Take SMACKVILLDGSEYTCDVEKRSRG [Q3A]: the protein stability index stood at 2.9.
The same measure, in the same setting: the same measure for SMRCKVILLDGSEYTCDVEKRSRG [Q3R]: 2.37; for SMTCKVILLDGSEYTCDVEKRSRG [Q3T]: 2.48.
For the variant SMDCKVILLDGSEYTCDVEKRSRG [Q3D], the protein stability index came out at 3.75.
On to SMICKVILLDGSEYTCDVEKRSRG [Q3I], for which the protein stability index stood at 2.44.
The same measure, in the same setting: with SMSCKVILLDGSEYTCDVEKRSRG [Q3S] the figure was 2.98.
On the same count and under the same terms, with SMGCKVILLDGSEYTCDVEKRSRG [Q3G] the figure was 2.38; with SMMCKVILLDGSEYTCDVEKRSRG [Q3M], 3.35.
As for SMECKVILLDGSEYTCDVEKRSRG [Q3E], the protein stability index came to 3.81.
Turning to SMHCKVILLDGSEYTCDVEKRSRG [Q3H], the protein stability index came out at 2.83.
As to SMLCKVILLDGSEYTCDVEKRSRG [Q3L], the protein stability index was found to be 1.49.
For the variant SMKCKVILLDGSEYTCDVEKRSRG [Q3K], the protein stability index was 2.68.

The variants in the next data set derive from B2. The description is as above. To be noted: c terminus: a fixed tail appended.
Consider CFITLTTIGFGDYVALQTKGALQI [K24I], for which the protein stability index is 2.09.
On the same count and under the same terms, with CFITLTTIGFGDYVALQTKGALQS [K24S] the figure was 3.33.
For CFITLTTIGFGDYVALQTKGALQP [K24P], the protein stability index is 2.96.
The same measure, in the same setting: the same measure for CFITLTTIGFGDYVALQTKGALQY [K24Y]: 3.16; for CFITLTTIGFGDYVALQTKGALQF [K24F]: 3.25; for CFITLTTIGFGDYVALQTKGALQC [K24C]: 2.9.
For the variant CFITLTTIGFGDYVALQTKGALQL [K24L], the protein stability index is 2.51.
CFITLTTIGFGDYVALQTKGALQE [K24E]: the protein stability index was found to be 3.56.
Regarding CFITLTTIGFGDYVALQTKGALQM [K24M], the protein stability index worked out at 2.88.
Take CFITLTTIGFGDYVALQTKGALQH [K24H]: the protein stability index was determined as 2.47.
As for CFITLTTIGFGDYVALQTKGALQN [K24N], the protein stability index amounted to 3.29.
Turning to CFITLTTIGFGDYVALQTKGALQV [K24V], the protein stability index is 3.03.
For the variant CFITLTTIGFGDYVALQTKGALQD [K24D], the protein stability index worked out at 3.71.
CFITLTTIGFGDYVALQTKGALQT [K24T]: the protein stability index was 3.42.
Still for that read-out and setting: with CFITLTTIGFGDYVALQTKGALQG [K24G] the figure was 2.28; with CFITLTTIGFGDYVALQTKGALQQ [K24Q], 2.33; with CFITLTTIGFGDYVALQTKGALQA [K24A], 2.85.
Take CFITLTTIGFGDYVALQTKGALTK [Q23T]: the protein stability index stood at 3.26.
Same read-out and setting: with CFITLTTIGFGDYVALQTKGALYK [Q23Y] the figure was 2.42.
As for CFITLTTIGFGDYVALQTKGALWK [Q23W], the protein stability index stood at 2.73.
Same read-out and setting: the same measure for CFITLTTIGFGDYVALQTKGALVK [Q23V]: 4.51.
